The target of experiment [1] is T1, mCCRL2 (Mus musculus, UniProt O35457).
T1 construct: The coding regions of mCCRL2, huCCRL2, mCRTH2, and huCCR10 were amplified from genomic DNA; expressed in transfected cells
T1 sequence (O35457 1-360): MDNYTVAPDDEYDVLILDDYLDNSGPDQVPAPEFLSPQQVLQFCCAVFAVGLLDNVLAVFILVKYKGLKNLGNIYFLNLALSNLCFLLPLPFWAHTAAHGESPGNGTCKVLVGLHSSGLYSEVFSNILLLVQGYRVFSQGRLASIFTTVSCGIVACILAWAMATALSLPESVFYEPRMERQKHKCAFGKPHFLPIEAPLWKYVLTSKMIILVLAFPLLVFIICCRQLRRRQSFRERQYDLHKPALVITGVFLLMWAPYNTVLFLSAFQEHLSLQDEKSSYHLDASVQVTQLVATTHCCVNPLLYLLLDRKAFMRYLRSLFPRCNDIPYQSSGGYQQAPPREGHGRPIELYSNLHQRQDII
Kind of experiment: chemerin binding/anti-mCCRL2 mAb displacement on peritoneal mast cells (flow cytometry). Conditions: 1000 nM.

Experiment [2] deals with T1, mCCRL2. Kind of experiment: in vitro transwell chemotaxis, mCCRL2/L1.2 transfectants. The format is cell-based. How it is done: For migration experiments using cell lines, 2.5×10^5 cells/100 μl chemotaxis media (RPMI+10% fetal calf serum) were added to the top wells of 5-um pore transwell inserts (Costar, Corning, N.Y., USA), and test samples in 600 μl media were added to the bottom wells. After incubating the transwell plates for 1.5 hours at 37° C., the bottom wells were harvested and flow cytometry was used to assess migration. For primary cell chemotaxis, 1×10^6 cells/100 μl were added to the top well, and, following a 2 hour incubation at 37° C., polystyrene beads (15.0 μm diameter, Polysciences, Warrington, Pa., USA) were added to each well to facilitate normalization of the cell count. The cells were then stained for c-kit, F4/80, and/or CD11b expression and analyzed by flow cytometry. A ratio was generated and percent input migration was calculated.

For experiment [3], the target named is T1, mCCRL2. Kind of experiment: intracellular calcium mobilization, CCRL2/HEK293 transfectants. In kind it is cell-based. Particulars: HEK293 background, alone or in combination. The protocol: Chemoattractant-stimulated Ca^2+-mobilization was performed following Alliance for Cell Signaling protocol ID PP00000210. Cells (3×10^6/mL) were loaded with 4 μM Fluo4-AM and 0.16% Pluronic acid F-127 (Molecular Probes) in modified Iscove's medium (Iscove's medium with 1% heat inactivated bovine calf serum and 2 mM L-glutamine, Invitrogen) for 30 minutes at 37° C. The samples were mixed every 10 minutes during loading, washed once, resuspended at up to 2×10^6/mL in the same buffer, and allowed to rest in the dark for 30 minutes at room temperature. Chemoattractant-stimulated change in Ca^2+-sensitive fluorescence of Fluo-4 was measured over real-time with a FACsScan flow cytometer and CellQuest software (BD Biosciences) at room temperature under constant stirring (500 rpm). Fluorescent data were acquired continuously up to 1024 seconds at 1-second intervals. The samples were analyzed for 45 seconds to establish basal state, removed from the nozzle to add the stimuli, and then returned to the nozzle. Mean channel fluorescence over time was analyzed with FlowJo (TreeStar, Ashland, Oreg., USA) software. […] 500 μl of these chemerin-loaded cells were added to mCMKLR1/L1.2 cells loaded with Fluo4-AM, and calcium mobilization was evaluated.

Experiment [4] addresses T2, mouse CCRL2 (chemokine (CC motif) receptor-like 2), untagged (mouse, UniProt O35457 1-360).
T2 construct: whole, on cells; also called mCCRL2; mCCRL2/L1.2
T2 sequence (looked up): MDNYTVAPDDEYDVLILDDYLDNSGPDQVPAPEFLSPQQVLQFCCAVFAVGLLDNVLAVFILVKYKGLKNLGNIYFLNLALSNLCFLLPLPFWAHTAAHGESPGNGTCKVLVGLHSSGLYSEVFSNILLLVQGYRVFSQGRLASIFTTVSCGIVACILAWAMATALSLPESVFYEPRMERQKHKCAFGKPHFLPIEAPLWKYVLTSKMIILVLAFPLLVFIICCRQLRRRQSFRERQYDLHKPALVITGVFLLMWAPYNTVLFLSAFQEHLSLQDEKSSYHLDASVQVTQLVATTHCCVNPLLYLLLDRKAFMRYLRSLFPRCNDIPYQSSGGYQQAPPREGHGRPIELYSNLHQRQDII
Kind of experiment: flow cytometry; chemerin inhibits staining of mouse peritoneal mast cells by the competitor anti-mCCRL2 BZ5B8; chemerin blocks anti-mCCRL2 mAb staining of mouse peritoneal mast cells. For orientation: In flow cytometry, cells or beads pass a laser one at a time.

Experiment [5] has as its target T3, mouse CMKLR1 (chemokine-like receptor 1), untagged (mouse, UniProt P97468 1-371).
T3 construct: whole, on cells; also called mCMKLR1; mCMKLR1/L1.2
T3 sequence (looked up): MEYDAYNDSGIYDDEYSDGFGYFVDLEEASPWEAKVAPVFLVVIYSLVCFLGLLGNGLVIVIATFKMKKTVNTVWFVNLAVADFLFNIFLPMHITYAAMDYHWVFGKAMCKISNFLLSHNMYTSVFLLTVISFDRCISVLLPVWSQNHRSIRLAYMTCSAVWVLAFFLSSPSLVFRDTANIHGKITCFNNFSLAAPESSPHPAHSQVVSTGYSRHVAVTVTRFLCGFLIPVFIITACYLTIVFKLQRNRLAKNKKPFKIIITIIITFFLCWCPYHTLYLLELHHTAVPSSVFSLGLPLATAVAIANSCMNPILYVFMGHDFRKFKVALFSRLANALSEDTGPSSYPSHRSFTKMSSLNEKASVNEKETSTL
Kind of experiment: radioligand competition on L1.2 transfectants; displaces 125I-chemerin 21-148; 9-mer peptide … on CMKLR1. Background: Loss of bound radioactivity is the signal in a displacement assay; it reports binding, not function.

Experiment [6] has as its target T3, mouse CMKLR1 (chemokine-like receptor …). Kind of experiment: radioligand competition on L1.2 transfectants, 125I-chemerin 21-148 displaced by the peptide … [panel B, legend box].
The target is the same in experiment [7]. Kind of experiment: radioligand competition on L1.2 transfectants.

For “CCL2: chemokine purchased from R&D Systems”, the “effect on CCRL2 staining” value with mCCRL2 [1] is given as “no effect”. Besides, in the experiment with mCCRL2 [2] (CCL2 with chemerin), the “synergy of CCL2 and chemerin in transwell migration” value was “did not synergize”. For the same molecule, in the experiment with mCCRL2 [2] (range of doses, CXCL12 and CCL19 act via endogenous CXCR4 and CCR7), the transwell migration result is “did not induce migration”. For the same molecule, the “agonism, intracellular calcium mobilization” value with mCCRL2 [3] is “neither CCL2 nor chemerin functioned as agonists”.

B1: human chemerin (as used to block anti-mCCRL2 staining, FIG. 6 Panel A) (ligand, UniProt Q99969 21-157, looked up)
chain: ELTEAQRRGLQVALEEFHKHPPVQWAFQETSVESAVDTPFPAGIFVRLEFKLQQTSCRKRDWKKPECKVRPNGRKRKCLACIKLGSEDKVLGRLVHCPIETQVLREAEEHQETQCLRVQRAGEDPHSFYFPGQFAFS
Usually EC50 stands for the concentration that produces a half-maximal response. B1 came in with an EC50 in experiment [4] of 21 nM.

B2: bioactive 9-mer carboxyl-terminal chemerin peptide (residues 149-157) (peptide)
peptide: YFPGQFAFS
notes: Synthetic peptide; also called bioactive chemerin peptide
As to B2, the concentration giving a half-maximal response (EC50) in experiment [5] turned out to be 26.2 nM; in experiment [6], 29 nM. Moreover, the “fold less potent (against chemerin protein)” value in experiment [7] worked out at 10 fold.
